Starred links: 1 amine or outer side, 2 acyl side, 3 side chain; linkers in the order of their positions; H or OH if unused. Positions of bridges follow the written chain, without caps; N, C: chain ends. Non-standard residues stand in square brackets, D forms with d. Groups on a side chain read outwards from the residue. *: point of attachment. PEG12 = NCCOCCOCCOCCOCCOCCOCCOCCOCCOCCOCCOCCOCCC(=O)O; Dip = N[C@H](C(=O)O)C(c1ccccc1)c1ccccc1; γGlu = O=C(O)[C@H](CCC(=O)[*:2])N[*:1]; Palmitoyl = CCCCCCCCCCCCCCCC(=O)*; NMeF = CN[C@@H](Cc1ccccc1)C(=O)O; αMeF = C[C@](N)(Cc1ccccc1)C(=O)O; β3hF = N[C@H](CC(=O)O)Cc1ccccc1; Isovaleryl = CC(C)CC(=O)*; βAla = NCCC(=O)O
T1: human ferroportin (SLC40A1) fused in frame with the GFP protein, stably expressed in HEK293 cells (human, UniProt Q9NP59 1-571)
T1 sequence (looked up): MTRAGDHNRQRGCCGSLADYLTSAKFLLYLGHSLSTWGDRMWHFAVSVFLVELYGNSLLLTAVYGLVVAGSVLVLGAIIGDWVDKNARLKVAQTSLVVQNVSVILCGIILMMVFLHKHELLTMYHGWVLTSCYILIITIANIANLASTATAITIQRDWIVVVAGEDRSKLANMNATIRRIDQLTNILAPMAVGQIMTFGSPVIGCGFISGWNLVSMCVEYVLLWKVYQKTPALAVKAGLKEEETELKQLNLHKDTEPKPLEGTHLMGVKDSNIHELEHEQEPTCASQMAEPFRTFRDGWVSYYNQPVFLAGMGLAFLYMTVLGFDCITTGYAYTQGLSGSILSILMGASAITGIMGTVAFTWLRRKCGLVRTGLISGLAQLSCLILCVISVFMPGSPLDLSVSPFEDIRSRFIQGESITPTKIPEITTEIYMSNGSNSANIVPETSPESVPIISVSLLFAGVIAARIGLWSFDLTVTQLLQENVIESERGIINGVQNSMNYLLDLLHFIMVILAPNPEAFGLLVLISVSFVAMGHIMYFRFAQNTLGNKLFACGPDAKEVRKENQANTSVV

T2: human ferroportin (SLC40A1) fused with GFP, stably expressed in HEK293 cells (human, UniProt Q9NP59 1-571)
T2 sequence (looked up): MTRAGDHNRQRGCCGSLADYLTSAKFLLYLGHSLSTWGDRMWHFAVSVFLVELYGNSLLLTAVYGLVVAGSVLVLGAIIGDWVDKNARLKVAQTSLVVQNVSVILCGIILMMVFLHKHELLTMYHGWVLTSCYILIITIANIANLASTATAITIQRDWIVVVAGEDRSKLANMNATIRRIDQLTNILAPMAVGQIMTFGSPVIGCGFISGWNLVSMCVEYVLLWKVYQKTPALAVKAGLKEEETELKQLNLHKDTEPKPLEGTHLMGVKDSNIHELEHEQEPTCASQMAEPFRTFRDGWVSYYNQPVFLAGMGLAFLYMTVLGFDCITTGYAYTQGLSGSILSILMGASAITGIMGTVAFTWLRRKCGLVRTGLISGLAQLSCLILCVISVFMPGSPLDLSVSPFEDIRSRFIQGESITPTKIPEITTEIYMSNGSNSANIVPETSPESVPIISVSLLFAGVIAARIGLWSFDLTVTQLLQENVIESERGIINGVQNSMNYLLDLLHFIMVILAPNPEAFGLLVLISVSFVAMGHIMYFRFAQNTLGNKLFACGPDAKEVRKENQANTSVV


target: T1, human ferroportin (SLC40A1) fused in …; experiment: cell-based or functional assay

FPN IC50 [nM]	Binder
64	Isovaleryl-DTHFPCIK([γGlu-Palmitoyl])FEPC-NH2 (disulfide 6-12; SMILES CCCCCCCCCCCCCCCC(=O)N[C@@H](CCC(=O)NCCCC[C@@H]1NC(=O)[C@H]([C@@H](C)CC)NC(=O)[C@@H](NC(=O)[C@@H]2CCCN2C(=O)[C@H](Cc2ccccc2)NC(=O)[C@H](Cc2c[nH]cn2)NC(=O)[C@@H](NC(=O)[C@H](CC(=O)O)NC(=O)CC(C)C)[C@@H](C)O)CSSC[C@@H](C(N)=O)NC(=O)[C@@H]2CCCN2C(=O)[C@H](CCC(=O)O)NC(=O)[C@H](Cc2ccccc2)NC1=O)C(=O)O) [Compd ID 205]
36	Isovaleryl-DTHFPCIK([γGlu-Palmitoyl])[β3hF]C-NH2 (disulfide 6-10; SMILES CCCCCCCCCCCCCCCC(=O)N[C@@H](CCC(=O)NCCCC[C@@H]1NC(=O)[C@H]([C@@H](C)CC)NC(=O)[C@@H](NC(=O)[C@@H]2CCCN2C(=O)[C@H](Cc2ccccc2)NC(=O)[C@H](Cc2c[nH]cn2)NC(=O)[C@@H](NC(=O)[C@H](CC(=O)O)NC(=O)CC(C)C)[C@@H](C)O)CSSC[C@@H](C(N)=O)NC(=O)C[C@H](Cc2ccccc2)NC1=O)C(=O)O) [Compd ID 214]
11	Isovaleryl-DTHFPCIK([γGlu-Palmitoyl])FEPRSKC-NH2 (disulfide 6-15; SMILES CCCCCCCCCCCCCCCC(=O)N[C@@H](CCC(=O)NCCCC[C@@H]1NC(=O)[C@H]([C@@H](C)CC)NC(=O)[C@@H](NC(=O)[C@@H]2CCCN2C(=O)[C@H](Cc2ccccc2)NC(=O)[C@H](Cc2c[nH]cn2)NC(=O)[C@@H](NC(=O)[C@H](CC(=O)O)NC(=O)CC(C)C)[C@@H](C)O)CSSC[C@@H](C(N)=O)NC(=O)[C@H](CCCCN)NC(=O)[C@H](CO)NC(=O)[C@H](CCCNC(=N)N)NC(=O)[C@@H]2CCCN2C(=O)[C@H](CCC(=O)O)NC(=O)[C@H](Cc2ccccc2)NC1=O)C(=O)O) [Compd ID 202]
60	Isovaleryl-DTHFPCIK([γGlu-Palmitoyl])FCK-NH2 (disulfide 6-10; SMILES CCCCCCCCCCCCCCCC(=O)N[C@@H](CCC(=O)NCCCC[C@@H]1NC(=O)[C@H]([C@@H](C)CC)NC(=O)[C@@H](NC(=O)[C@@H]2CCCN2C(=O)[C@H](Cc2ccccc2)NC(=O)[C@H](Cc2c[nH]cn2)NC(=O)[C@@H](NC(=O)[C@H](CC(=O)O)NC(=O)CC(C)C)[C@@H](C)O)CSSC[C@@H](C(=O)N[C@@H](CCCCN)C(N)=O)NC(=O)[C@H](Cc2ccccc2)NC1=O)C(=O)O) [Compd ID 210]
96	Isovaleryl-DTHFPCIK([γGlu-Palmitoyl])[αMeF]C-NH2 (disulfide 6-10; SMILES CCCCCCCCCCCCCCCC(=O)N[C@@H](CCC(=O)NCCCC[C@@H]1NC(=O)[C@H]([C@@H](C)CC)NC(=O)[C@@H](NC(=O)[C@@H]2CCCN2C(=O)[C@H](Cc2ccccc2)NC(=O)[C@H](Cc2c[nH]cn2)NC(=O)[C@@H](NC(=O)[C@H](CC(=O)O)NC(=O)CC(C)C)[C@@H](C)O)CSSC[C@@H](C(N)=O)NC(=O)[C@](C)(Cc2ccccc2)NC1=O)C(=O)O) [Compd ID 215]
9	Isovaleryl-DTHFPCIK([γGlu-Palmitoyl])FEPRSKGC-NH2 (disulfide 6-16; SMILES CCCCCCCCCCCCCCCC(=O)N[C@@H](CCC(=O)NCCCC[C@@H]1NC(=O)[C@H]([C@@H](C)CC)NC(=O)[C@@H](NC(=O)[C@@H]2CCCN2C(=O)[C@H](Cc2ccccc2)NC(=O)[C@H](Cc2c[nH]cn2)NC(=O)[C@@H](NC(=O)[C@H](CC(=O)O)NC(=O)CC(C)C)[C@@H](C)O)CSSC[C@@H](C(N)=O)NC(=O)CNC(=O)[C@H](CCCCN)NC(=O)[C@H](CO)NC(=O)[C@H](CCCNC(=N)N)NC(=O)[C@@H]2CCCN2C(=O)[C@H](CCC(=O)O)NC(=O)[C@H](Cc2ccccc2)NC1=O)C(=O)O) [Compd ID 201]
267	Isovaleryl-DTHFPCIK([γGlu-Palmitoyl])FEC-NH2 (disulfide 6-11; SMILES CCCCCCCCCCCCCCCC(=O)N[C@@H](CCC(=O)NCCCC[C@@H]1NC(=O)[C@H]([C@@H](C)CC)NC(=O)[C@@H](NC(=O)[C@@H]2CCCN2C(=O)[C@H](Cc2ccccc2)NC(=O)[C@H](Cc2c[nH]cn2)NC(=O)[C@@H](NC(=O)[C@H](CC(=O)O)NC(=O)CC(C)C)[C@@H](C)O)CSSC[C@@H](C(N)=O)NC(=O)[C@H](CCC(=O)O)NC(=O)[C@H](Cc2ccccc2)NC1=O)C(=O)O) [Compd ID 206]
15	Isovaleryl-DTHFPCIK([γGlu-Palmitoyl])FEPRSC-NH2 (disulfide 6-14; SMILES CCCCCCCCCCCCCCCC(=O)N[C@@H](CCC(=O)NCCCC[C@@H]1NC(=O)[C@H]([C@@H](C)CC)NC(=O)[C@@H](NC(=O)[C@@H]2CCCN2C(=O)[C@H](Cc2ccccc2)NC(=O)[C@H](Cc2c[nH]cn2)NC(=O)[C@@H](NC(=O)[C@H](CC(=O)O)NC(=O)CC(C)C)[C@@H](C)O)CSSC[C@@H](C(N)=O)NC(=O)[C@H](CO)NC(=O)[C@H](CCCNC(=N)N)NC(=O)[C@@H]2CCCN2C(=O)[C@H](CCC(=O)O)NC(=O)[C@H](Cc2ccccc2)NC1=O)C(=O)O) [Compd ID 203]
403	Isovaleryl-DTHFPCI[dK]([γGlu-Palmitoyl])[NMeF]GC-NH2 (disulfide 6-11; SMILES CCCCCCCCCCCCCCCC(=O)N[C@@H](CCC(=O)NCCCC[C@H]1NC(=O)[C@H]([C@@H](C)CC)NC(=O)[C@@H](NC(=O)[C@@H]2CCCN2C(=O)[C@H](Cc2ccccc2)NC(=O)[C@H](Cc2c[nH]cn2)NC(=O)[C@@H](NC(=O)[C@H](CC(=O)O)NC(=O)CC(C)C)[C@@H](C)O)CSSC[C@@H](C(N)=O)NC(=O)CNC(=O)[C@H](Cc2ccccc2)N(C)C1=O)C(=O)O) [Compd ID 212]
14	Isovaleryl-DTHFPCIK([γGlu-Palmitoyl])FEPRC-NH2 (disulfide 6-13; SMILES CCCCCCCCCCCCCCCC(=O)N[C@@H](CCC(=O)NCCCC[C@@H]1NC(=O)[C@H]([C@@H](C)CC)NC(=O)[C@@H](NC(=O)[C@@H]2CCCN2C(=O)[C@H](Cc2ccccc2)NC(=O)[C@H](Cc2c[nH]cn2)NC(=O)[C@@H](NC(=O)[C@H](CC(=O)O)NC(=O)CC(C)C)[C@@H](C)O)CSSC[C@@H](C(N)=O)NC(=O)[C@H](CCCNC(=N)N)NC(=O)[C@@H]2CCCN2C(=O)[C@H](CCC(=O)O)NC(=O)[C@H](Cc2ccccc2)NC1=O)C(=O)O) [Compd ID 204]
64	Isovaleryl-DTHFPCIK([γGlu-Palmitoyl])FC-NH2 (disulfide 6-10; SMILES CCCCCCCCCCCCCCCC(=O)N[C@@H](CCC(=O)NCCCC[C@@H]1NC(=O)[C@H]([C@@H](C)CC)NC(=O)[C@@H](NC(=O)[C@@H]2CCCN2C(=O)[C@H](Cc2ccccc2)NC(=O)[C@H](Cc2c[nH]cn2)NC(=O)[C@@H](NC(=O)[C@H](CC(=O)O)NC(=O)CC(C)C)[C@@H](C)O)CSSC[C@@H](C(N)=O)NC(=O)[C@H](Cc2ccccc2)NC1=O)C(=O)O) [Compd ID 207]

target: T2, human ferroportin (SLC40A1) fused with …; experiment: cell-based or functional assay

FPN IC50 [nM]	Binder
22	DTHXPCIKFKC (Isovaleric acid-DTH-[Dpa]-PCI-[(D)Lys]-F-[Lys(Peg11-Palm)]-C-NH2) [Compd ID 135]
27	DTHXPCIKFKXC (Isovaleric acid-DTH-[Dpa]-PCI-[(D)Lys]-F-[Lys(Peg11-Palm)]-[Orn]-C-NH2) [Compd ID 136]
51	DTHXPCIKFKXX (Isovaleric acid-DTH-[Dpa]-PCI-[(D)Lys]-F-[Lys(Peg11-Palm)]-[Dap]-[Pen]-NH2) [Compd ID 140]
32	Isovaleryl-DTHFPCI[dK]FK([PEG12-Palmitoyl])CK-NH2 (disulfide 6-11 (inferred)) [Compd ID 144]
26.5	DTHXPXIKFKXC (Isovaleric acid-DTH-[Dpa]-P-[Hcy]-I-[(D)Lys]-F-[Lys(Peg11-Palm)]-[Dap]-C-NH2) [Compd ID 141]
19.5	DTHXPCIKFKKC (Isovaleric acid-DTH-[Dpa]-PCI-[(D)Lys]-F-[Lys(Peg11-Palm)]-[(D)Lys]-C-NH2) [Compd ID 139]
12	DTHXPXIKFKXX (Isovaleric acid-DTH-[Dpa]-P-[Hcy]-I-[(D)Lys]-F-[Lys(Peg11-Palm)]-[Dap]-[Hcy]-NH2) [Compd ID 142]
18	Isovaleryl-DTH[Dip]PCI[βAla][β3hF]K([PEG12-Palmitoyl])[dK]C-NH2 (disulfide 6-12 (inferred)) [Compd ID 145]
15	DTHFPCIKFKPCK (Isovaleric acid-DTHFPCIKF-Lys[PEG11-Palm]-PCK-NH2) [Compd ID 9]
20.5	DTHXPCIKFKXC (Isovaleric acid-DTH-[Dpa]-PCI-[(D)Lys]-F-[Lys(Peg11-Palm)]-[b-hLys]-C-NH2) [Compd ID 138]
23	DTHXPCIKFKXC (Isovaleric acid-DTH-[Dpa]-PCI-[(D)Lys]-F-[Lys(Peg11-Palm)]-[Dab]-C-NH2) [Compd ID 137]
18	DTHXPCIKFKXX (Isovaleric acid-DTH-[Dpa]-PCI-[(D)Lys]-F-[Lys(Peg11-Palm)]-[Dap]-[Hcy]-NH2) [Compd ID 143]
